Assay results: publication PMC10673952 (2023)

What was measured:
FimI = target: T1, FimI (E. coli W3110, UniProt P39264 20-179); test: 37 °C, excess FimC
T1 chain: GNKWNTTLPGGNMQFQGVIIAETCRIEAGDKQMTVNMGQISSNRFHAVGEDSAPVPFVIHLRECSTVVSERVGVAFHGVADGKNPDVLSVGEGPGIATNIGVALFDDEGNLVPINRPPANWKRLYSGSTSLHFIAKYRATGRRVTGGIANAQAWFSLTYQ

[1] = target: T2, FimI-FimAtHis (the two subunits of the ternary FimCHisIA complex) (E. coli W3110 | E. coli, UniProt P39264 20-179; P04128 37-182); test: 37 °C, excess FimC; printed as 0.18 h-1
T2 chain 1: T1 chain
T2 chain 2: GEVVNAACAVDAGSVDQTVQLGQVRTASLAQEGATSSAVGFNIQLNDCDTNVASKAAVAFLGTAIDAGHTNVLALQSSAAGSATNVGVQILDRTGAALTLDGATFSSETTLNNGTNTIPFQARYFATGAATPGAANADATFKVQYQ

FimFt = target: T3, FimFt (E. coli); test: 37 °C, excess FimC; printed as 0.44 h-1
T3 chain: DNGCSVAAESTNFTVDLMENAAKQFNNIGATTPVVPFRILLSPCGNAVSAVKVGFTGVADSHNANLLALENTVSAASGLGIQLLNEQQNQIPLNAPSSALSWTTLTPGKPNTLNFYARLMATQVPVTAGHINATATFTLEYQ

[2] = target: T4, FimF-FimGt (the two subunits of the ternary FimCHisFG complex) (E. coli, UniProt P08189 21-176; P08190 24-167); test: 37 °C, excess FimC; printed as 0.49 h-1
T4 chain 1: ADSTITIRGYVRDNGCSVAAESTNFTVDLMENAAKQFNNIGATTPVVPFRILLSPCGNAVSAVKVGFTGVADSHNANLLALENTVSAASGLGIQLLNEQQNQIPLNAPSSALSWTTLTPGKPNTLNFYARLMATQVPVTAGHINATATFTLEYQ
T4 chain 2: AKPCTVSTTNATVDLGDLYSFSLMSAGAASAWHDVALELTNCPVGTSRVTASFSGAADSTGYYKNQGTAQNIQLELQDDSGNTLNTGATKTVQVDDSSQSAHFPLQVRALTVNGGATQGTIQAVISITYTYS

B1: FimCHis (FimC with C-terminal hexahistidine tag) (natural protein)
chain: GVALGATRVIYPAGQKQEQLAVTNNDENSTYLIQSWVENADGVKDGRFIVTPPLFAMKGKKENTLRILDATNNQLPQDRESLFWMNVKAIPSMDKSKLTENTLQLAIISRIKLYYRPAKLALPPDQAAEKLRFRRSANSLTLINPTPYYLTVTELNAGTRVLENALVPPMGESTVKLPSDAGSNITYRTINDYGALTPKMTGVME
Binder B1 has a koff (FimI) of 0.011 s⁻¹, a koff [1] of 5e-05 s⁻¹ and a koff (FimFt) of 0.000122 s⁻¹. For the same binder, the koff [2] was 0.000136 s⁻¹.
